T1: hIL10Ra-his (Sino Biological, Catalog#10419) (human, UniProt Q13651 22-235)
T1 construct: Bought; also called Sino Biological cat#10419-H08H; not shown: C-terminal poly-His tag
T1 sequence: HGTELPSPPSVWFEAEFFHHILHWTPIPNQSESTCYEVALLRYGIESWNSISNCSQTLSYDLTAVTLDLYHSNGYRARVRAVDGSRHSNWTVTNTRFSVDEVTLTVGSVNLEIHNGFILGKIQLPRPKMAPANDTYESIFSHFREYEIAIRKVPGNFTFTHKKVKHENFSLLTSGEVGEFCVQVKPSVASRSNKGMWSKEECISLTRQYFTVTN

T2: mIL10Rb ECD antigen (mouse, UniProt Q61190 20-220)
T2 construct: Antigen of biopanning and PE-ELISA; also called extracellular domain of mIL10Rb
T2 sequence: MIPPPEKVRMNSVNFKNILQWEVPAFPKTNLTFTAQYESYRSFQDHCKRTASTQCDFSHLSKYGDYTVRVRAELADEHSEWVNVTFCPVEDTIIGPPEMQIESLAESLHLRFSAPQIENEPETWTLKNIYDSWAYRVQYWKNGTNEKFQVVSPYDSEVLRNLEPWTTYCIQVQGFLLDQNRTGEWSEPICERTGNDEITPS

T3: hIL10Rb-his (Sino Biological, Catalog#10945) (human, UniProt Q08334 20-220)
T3 construct: Bought; also called Sino Biological cat#10945-H08H; not shown: C-terminal poly-His tag
T3 sequence: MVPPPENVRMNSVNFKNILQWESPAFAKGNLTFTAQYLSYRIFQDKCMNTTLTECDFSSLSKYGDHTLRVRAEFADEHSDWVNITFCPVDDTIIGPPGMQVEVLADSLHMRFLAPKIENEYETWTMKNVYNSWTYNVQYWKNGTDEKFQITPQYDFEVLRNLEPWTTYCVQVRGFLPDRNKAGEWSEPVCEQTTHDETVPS

B1: hIL-10Ra_VHH6 Mono-Fc (Fc fusion)
chain: QVQLQESGGGSVQAGGSLRLSCAASRFTYSSYCMGWFRQAPGKEREGVASIDSDGSTSYTDSVKGRFTISKDNAKNTLYLQMNSLKPEDTAMYYCALDLMSTVVPGFCGFLLSAGMDYWGKGTQVTVSS
notes: Mono-Fc VHH captured on Protein A; not shown: mono-Fc part
B2: hIL-10Ra_VHH8 Mono-Fc (Fc fusion)
chain: QVQLQESGGGSVQAGGSLRLSCAASGYTYSMYCMGWFRQAPGKEREGVAQINSDGSTSYADSVKGRFTISKDNAKNTLYLQMNSLKPEDTAMYYCAADSRVYGGSWYERLCGPYTYEYNYWGQGTQVTVSS
notes: as for B1
B3: hIL-10Ra_VHH9 Mono-Fc (Fc fusion)
chain: QVQLQESGGGSVQAGGSLRLSCAVSGYAYSTYCMGWFRQAPGKEREGVAAIDSGGSTSYADSVKGRFTISKDNAKNTLYLRMNSLKPEDTAMYYCAAVPPPPDGGSCLFLGPEIKVSKADFRYWGQGTQVTVSS
notes: as for B1
B4: hIL-10Ra_VHH10 Mono-Fc (Fc fusion)
chain: QVQLQESGGGSVQAGGSLRLSCAASRYLYSIDYMAWFRQSPGKEREPVAVIYTASGATFYPDSVKGRFTISQDNAKMTVYLQMNSLKSEDTAMYYCAAVRKTDSYLFDAQSFTYWGQGTQVTVSS
notes: as for B1
B5: DR1322 (anti mouse mIL10Rb VHH) (VHH)
VHH: QVQLQESGGGSVQAGGALRLSCTASGYTASSICMGWFRQAPGKERERVAVITTAASGTYYADSVNGRFSISQNNAKNTVYLQMNSLKPDDTAMYYCAATRRGGDCLDPLQTPAYNTWGQGTQVTVSS
notes: Phage clone, periplasmic extract
B6: DR1323 (anti mouse mIL10Rb VHH) (VHH)
VHH: QVQLQESGGGSVQAGGSLRLSCVASGDTYSRKYIAWVRQVPGKEREGVAVMYTPGSATYYTDTVMGRFTISQDNAKNTVYLQMNSLKPEDTAMYFCAAKASGSMFNFRDYTYWGQGTQVTVSS
notes: as for B5
B7: DR1324 (anti mouse mIL10Rb VHH) (VHH)
VHH: QVQLQESGGGSVQAGGSLRLSCATSGYASCSRAMRWYRQAPGKEREFVAYIDGVGSTGYADSVKGRFTISQDNAKYTAYLQMNSLKPEDTAMYYCNRGCRADGSNSLDNYWGQGTQVTVSS
notes: as for B5
B8: DR1325 (anti mouse mIL10Rb VHH) (VHH)
VHH: QVQLQESGGGSVQAGGSLRLSCAASGYTYNRRFMGWFRQAPGKEREGLAIIYTPNSSTFYADSVTGRFTISQDSARNTVYLQMNSLKPEDTAMYYCAAARIASMTELSVRDMDYWGKGTQVTVSS
notes: as for B5
B9: DR1326 (anti mouse mIL10Rb VHH) (VHH)
VHH: QVQLQESGGGSVQAGGSLRLSCTASRYIALNACMAWIRQAPGSEREVVATIVTDGSRTYYADSVKGRFTISQDNAKNTMYLQMNGLKPEDTAMYYCAADRRCPVSRAPYEYELRYWGQGTQVTVSS
notes: as for B5
B10: DR1327 (anti mouse mIL10Rb VHH) (VHH)
VHH: QVQLQESGGGSVQAGGSLRLSCAASGYTYNGKCMAWFRQAPGKEREVVAGIYTGGSSTYYADSVKGRFTISQDNAKNTVYLQMDSLKPEDTAMYYCATSRSCSDLRRRSIAYWGQGTQVTVSS
notes: as for B5
B11: hIL-10Ra_VHH12 Mono-Fc (Fc fusion)
chain: QVQLQESGGGSVQAGGSLRLSCTVSGYTYSSNCMGWFRQAPGKEREGVATIYTGGGNTYYADSVKGRFTISQDNAKNTVYLQMNNLKPEDTAMYYCAAEPLSRVYGGSCPTPTFDYWGQGTQVTVSS
notes: as for B1
B12: hIL-10Ra_VHH14 Mono-Fc (Fc fusion)
chain: QVQLQESGGGSVQAGGSLRLSCGASGYTYSSYCMGWFRQVPGKEREGVAVIDSDGSTSYADSVKGRFTISKDNGKNTLYLQMNSLKPEDTAMYYCAADLGHYRPPCGVLYLGMDYWGKGTQVTVSS
notes: as for B1
B13: hIL-10Ra_VHH17 Mono-Fc (Fc fusion)
chain: QVQLQESGGGSVQAGGSLRLSCAASGYSNCSYDMTWYRQAPGKEREFVSAIHSDGSTRYADSVKGRFFISQDNAKNTVYLQMNSLKPEDTAMYYCKTDPLHCRAHGGSWYSVRANYWGQGTQVTVSS
notes: as for B1
B14: hIL-10Rb_VHH1 Mono-Fc (Fc fusion)
chain: QVQLQESGGGSVQAGGSLRLSCAASGYTYSSGCMGWFRQAPGKEREAVAAINSDGSTSYADSVKGRFTISKDNAKNTLYLQMNSLKPEDTAMYYCAAEPYCSGGYPRWSVAEFGYWGQGTQVTVSS
notes: as for B1
B15: hIL-10Rb_VHH12 Mono-Fc (Fc fusion)
chain: QVQLQESGGGSVQAGGSLRLSCAASGYTYSSYCMGWFRQAPGKEREGVAHIDSDGSTSYADSVKGRFTISKDNAKNTLYLQMNSLKPEDTAMYYCAADPIPGPGYCDGGPNKYWGQGTQVTVSS
notes: as for B1
B16: hIL-10Rb_VHH3 Mono-Fc (Fc fusion)
chain: QVQLQESGGGSVQAGGSLRLSCAASRYTYNSYCMGWFRQAPGKEREGVATIDSDGMTRYADSVKGRFTISKDNAKNTLYLQMNSLKPEDTAMYYCAADADCTIAAMTTNPLGQGTQVTVSS
notes: as for B1
B17: hIL-10Rb_VHH15 Mono-Fc (Fc fusion)
chain: QVQLQESGGGSVQAGGSLRLSCTVSRYTASVNYMGWFRQAPGKEREGVATIFTGAGTTYYANSVKGRFTISRDNAKNTAYLQMNSLKPEDTAIYYCAVDFRGGLLYRPAYEYTYRGQGTQVTVSS
notes: as for B1
B18: hIL-10Rb_VHH26 Mono-Fc (Fc fusion)
chain: QVQLQESGGGSVQAGGSLRLSCAASGYSYSSYCMGWFRQAPGKEREGVATIDSDGMTRYADSVKGRFTISKDNAKNTLYLQMNSLKPEDTAMYYCAAPLYDCDSGAVGRNPPYWGQGTQVTVSS
notes: as for B1
B19: hIL-10Rb_VHH27 Mono-Fc (Fc fusion)
chain: QVQLQESGGGSVQTGGSLRLSCAASGYTYLRGCMGWFRQAPGKEREGVAVMDVVGDRRSYIDSVKGRFTISRDNAANSVYLQMDNLKPEDTAMYYCTAGPNCVGWRSGLDYWGQGTQVTVSS
notes: as for B1

Key:
[1] = molecular target: T1, hIL10Ra-his (Sino Biological, …); test: SPR Biacore T200; mono-Fc VHH captured on Protein A chip, hIL10Ra-his analyte; 1:1 Langmuir fit
From the text: (§1) To confirm and evaluate binding affinities of the binding of the IL10Ra sdAbs, a representative example from each clonotype generated was selected for evaluation of binding via SPR. […] Buffer-subtracted sensograms were processed with Biacore T200 Evaluation Software and globally fit with a 1:1 Langmuir binding model (bulk shift set to zero) to extract kinetics and affinity constants (kₐ, kd, KD). RMAX<100 RU indicates surface density compatible with kinetics analysis. Calculated Rₘₐₓ values were generated using the equation: Rₘₐₓ=Load (RU)×valency of ligand×(Molecular weight of analyte/Molecular weight of ligand). Surface activity was defined as the ratio of experimental/calculated Rmax.
One representative example from each clonotype of IL10a generated in accordance with Examples 1-3 was selected for evaluation of binding via SPR as follows. […] All experiments were conducted in 10 mM Hepes, 150 mM NaCl, 0.05% (v/v) Polysorbate 20 (PS20) and 3 mM EDTA (HBS-EP+ buffer) on a Biacore T200 instrument equipped with a Protein A derivatized sensor chip (Cytiva). Mono-Fc VHH ligands were flowed at 5 μl/min for variable time ranging from 18 to 300 seconds, reaching the capture loads listed in the tables below. Following ligand capture, […], typically comprising at least five concentrations between 1 μM and 1 nM, were performed in either high performance or single cycle kinetics mode. Surface regeneration was achieved by flowing 10 mM glycine-HCl, pH 1.5 (60 seconds, 50 μL/min).

[2] = molecular target: T1, hIL10Ra-his (Sino Biological, …); test: SPR; ratio of experimental to calculated Rmax
From the text: as §1
One representative example from each clonotype of IL10a generated in accordance with Examples 1-3 was selected for evaluation of binding via SPR as follows. […] All experiments were conducted in 10 mM Hepes, 150 mM NaCl, 0.05% (v/v) Polysorbate 20 (PS20) and 3 mM EDTA (HBS-EP+ buffer) on a Biacore T200 instrument equipped with a Protein A derivatized sensor chip (Cytiva). Mono-Fc VHH ligands were flowed at 5 μl/min for variable time ranging from 18 to 300 seconds, reaching the capture loads listed in the tables below. Following ligand capture, injections of a 2-fold dilution series of the extracellular domain of the […] modified to incorporate a C-terminal poly-His sequence, typically comprising at least five concentrations between 1 μM and 1 nM, were performed in either high performance or single cycle kinetics mode. Surface regeneration was achieved by flowing 10 mM glycine-HCl, pH 1.5 (60 seconds, 50 μL/min).

mIL10Rb ECD antigen = molecular target: T2, mIL10Rb ECD antigen; test: periplasmic extract ELISA (PE-ELISA) of phage clones
[3] = molecular target: T3, hIL10Rb-his (Sino Biological, …); test: SPR; ratio of experimental to calculated Rmax
[4] = molecular target: T3, hIL10Rb-his (Sino Biological, …); test: SPR Biacore T200; mono-Fc VHH captured on Protein A chip, hIL10Rb-his analyte; 1:1 Langmuir fit

| Binder | Kd [1] | koff [1] | kon [1] | Surface Activity [2] | binding result (mIL10Rb ECD antigen) | Surface Activity [3] | Kd [4] | koff [4] | kon [4] |
| --- | --- | --- | --- | --- | --- | --- | --- | --- | --- |
| B1 | 1.8 nM | 0.00019 s⁻¹ | 106000 M⁻¹ s⁻¹ | 83% | – | – | – | – | – |
| B2 | 6.4 nM | 0.00107 s⁻¹ | 168000 M⁻¹ s⁻¹ | 57% | – | – | – | – | – |
| B3 | 11.6 nM | 0.00115 s⁻¹ | 99700 M⁻¹ s⁻¹ | 66% | – | – | – | – | – |
| B4 | 13.4 nM | 0.00139 s⁻¹ | 104000 M⁻¹ s⁻¹ | 57% | – | – | – | – | – |
| B5 | – | – | – | – | binds | – | – | – | – |
| B6 | – | – | – | – | binds | – | – | – | – |
| B7 | – | – | – | – | binds | – | – | – | – |
| B8 | – | – | – | – | binds | – | – | – | – |
| B9 | – | – | – | – | binds | – | – | – | – |
| B10 | – | – | – | – | binds | – | – | – | – |
| B11 | 7.7 nM | 0.00119 s⁻¹ | 154000 M⁻¹ s⁻¹ | 73% | – | – | – | – | – |
| B12 | 1.4 nM | 0.000136 s⁻¹ | 98400 M⁻¹ s⁻¹ | 51% | – | – | – | – | – |
| B13 | 6 nM | 0.00197 s⁻¹ | 327000 M⁻¹ s⁻¹ | 35% | – | – | – | – | – |
| B14 | – | – | – | – | – | 82% | 8.3 nM | 0.00144 s⁻¹ | 175000 M⁻¹ s⁻¹ |
| B15 | – | – | – | – | – | 67% | 12.9 nM | 0.00143 s⁻¹ | 111000 M⁻¹ s⁻¹ |
| B16 | – | – | – | – | – | 52% | 231 nM | 0.0214 s⁻¹ | 92900 M⁻¹ s⁻¹ |
| B17 | – | – | – | – | – | 18% | 121 nM | 0.00866 s⁻¹ | 71800 M⁻¹ s⁻¹ |
| B18 | – | – | – | – | – | 54% | 314 nM | 0.0213 s⁻¹ | 67800 M⁻¹ s⁻¹ |
| B19 | – | – | – | – | – | 24% | 2.4 nM | 0.0254 s⁻¹ | 1.07e+07 M⁻¹ s⁻¹ |

— patent US20250163167A1 (SYNTHEKINE, published 2025)
